Four molecules from CN101151278A can be followed below.

The target in one experiment is T1, 可溶性CD20 (Genentech) (UniProt P11836).
T1 sequence (looked up): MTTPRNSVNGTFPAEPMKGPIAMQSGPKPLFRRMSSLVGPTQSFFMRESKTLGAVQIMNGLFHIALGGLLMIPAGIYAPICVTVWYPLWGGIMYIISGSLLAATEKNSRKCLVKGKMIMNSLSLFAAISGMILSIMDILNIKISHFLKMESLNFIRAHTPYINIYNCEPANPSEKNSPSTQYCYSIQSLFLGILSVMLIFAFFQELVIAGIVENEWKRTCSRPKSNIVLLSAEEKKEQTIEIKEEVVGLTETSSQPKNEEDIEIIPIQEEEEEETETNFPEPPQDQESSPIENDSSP
The experiment is described as follows: ELISA, soluble CD20 coated on plate. (In general: In an ELISA, binding on a coated surface is turned into a signal by an enzyme label.)

Experiment [1] concerns the target T2, CD20 on WIL2-S cells (human) (UniProt P11836).
T2 sequence (looked up): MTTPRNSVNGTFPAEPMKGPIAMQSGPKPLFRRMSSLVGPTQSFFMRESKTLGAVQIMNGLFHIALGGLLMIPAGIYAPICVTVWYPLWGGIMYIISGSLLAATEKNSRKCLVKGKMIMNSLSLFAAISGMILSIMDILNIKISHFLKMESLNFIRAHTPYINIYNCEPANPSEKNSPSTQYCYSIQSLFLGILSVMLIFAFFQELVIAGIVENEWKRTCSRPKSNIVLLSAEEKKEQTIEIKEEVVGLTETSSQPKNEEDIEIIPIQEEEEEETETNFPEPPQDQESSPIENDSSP
Put plainly: cell ELISA, WIL2-S; ratio vs chimeric 2H7.v6.8.

B1: hu2H7.v511 (antibody, human IgG1, kappa, V domains shown)
VH: EVQLVESGGGLVQPGGSLRLSCAASGYTFTSYNMHWVRQAPGKGLEWVGAIYPGNGATSYNQKFKGRFTISVDKSKNTLYLQMNSLRAEDTAVYYCARVVYYSYRYWYFDVWGQGTLVTVSS
VL: DIQMTQSPSSLSASVGDRVTITCRASSSVSYLHWYQQKPGKAPKPLIYAPSNLASGVPSRFSGSGSGTDFTLTISSLQPEDFATYYCQQWAFNPPTFGQGTKVEIKR
Take B1: the fold increase in binding (vs 2H7.v16 and 2H7.v588) in the experiment with 可溶性CD20 (Genentech) turned out to be 90 fold.

B2: 2H7.v4 (antibody, IgG1, V domains shown)
VH: EVQLVESGGGLVQPGGSLRLSCAASGYTFTSYNMHWVRQAPGKGLEWVAAIYPGNGDTSYNQKFKGRFTISVDNSKNTLYLQMNSLRAEDTAVYYCARVVYYSNSYWYFDVWGQGTLVTVSS
VL: DIQMTQSPSSLSASVGDRVTITCRASSSVSYMHWYQQKPGKAPKLLIYAPSNLASGVPSRFSGSGSGTDFTLTISSLQPEDFATYYCQQWSFNPPTFGQGTKVEIKR
For B2, the 相对结合 in experiment [1] came to 0.21.

B3: 人源化2H7型式2 (2H7.v2) (antibody, IgG1, V domains shown)
VH: EVQLVESGGGLVQPGGSLRLSCAASGYTFTSYNMHWVRQAPGKGLEWVAAIYPGNGDTSYNQKFKGRFTISRDNSKNTLYLQMNSLRAEDTAVYYCARVVYYSNSYWYFDVWGQGTLVTVSS
VL: DIQMTQSPSSLSASVGDRVTITCRASSSVSYMHWYQQKPGKAPKLLIYAPSNLASGVPSRFSGSGSGTDFTLTISSLQPEDFATYYCQQWSFNPPTFGQGTKVEIKR
Take B3: the 相对结合 in experiment [1] came to 0.01.

B4: 2H7.v3 (antibody, IgG1, V domains shown)
VH: EVQLVESGGGLVQPGGSLRLSCAASGYTFTSYNMHWVRQAPGKGLEWVAAIYPGNGDTSYNQKFKGRFTISVDKSKNTLYLQMNSLRAEDTAVYYCARVVYYSNSYWYFDVWGQGTLVTVSS
VL: DIQMTQSPSSLSASVGDRVTITCRASSSVSYMHWYQQKPGKAPKLLIYAPSNLASGVPSRFSGSGSGTDFTLTISSLQPEDFATYYCQQWSFNPPTFGQGTKVEIKR
B4: the 相对结合 in experiment [1] was 0.21.
